Test results reported in patent publication US6468985B1, “Retinoblastoma protein-interacting zinc finger proteins” (The Burnham Institute, priority 1994, dated 2002).

How the values were obtained:
RIZ = target: T1, RIZ (Rattus norvegicus, UniProt Q63755); assay: binding of anti-RIZ antiserum / anti-ce1 antibody to RIZ and RIZ truncation mutants
T1 construct: made in house; host or cells: in vitro transcription/translation (rabbit reticulocyte lysate)
T1 sequence (Q63755 1-318): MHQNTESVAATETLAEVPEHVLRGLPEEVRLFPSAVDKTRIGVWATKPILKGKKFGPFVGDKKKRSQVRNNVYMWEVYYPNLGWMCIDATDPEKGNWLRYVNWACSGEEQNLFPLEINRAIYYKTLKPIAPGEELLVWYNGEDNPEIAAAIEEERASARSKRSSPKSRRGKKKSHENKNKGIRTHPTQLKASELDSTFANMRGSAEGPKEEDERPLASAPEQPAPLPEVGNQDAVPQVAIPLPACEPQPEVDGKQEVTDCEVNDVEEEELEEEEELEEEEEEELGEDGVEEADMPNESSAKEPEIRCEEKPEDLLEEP
Experimental: Anti-RIZ antibodies purified from the E1A affinity column were tested for binding to RIZ and E1A. […] The E1A-affinity purified RIZ antibodies were designated “anti-ce1” for cross reacting E1A antigen.
Anti-ce1 antibodies were tested for binding to various deletion mutants of RIZ and E1A 12S in order to map the location of the ce1 epitope on each molecule.
To evaluate this possibility, an 11 amino acid peptide encompassing residues 310-320 in RIZ (ce1 peptide) [sequence] (SEQ ID NO: 7) and an overlapping 11 amino acid control peptide encompassing residues 304-314 containing the cr2 core motif of RIZ, peptide [sequence] (SEQ ID NO: 6), were synthesized by solid phase peptide synthesis and tested for their ability to block binding between anti-ce1 antibody and RIZ or E1A.

E1A 12S = E1A 12S (Human adenovirus C serotype 5, UniProt P03255)
Sequence of E1A 12S (P03255 1-139, added parts left off): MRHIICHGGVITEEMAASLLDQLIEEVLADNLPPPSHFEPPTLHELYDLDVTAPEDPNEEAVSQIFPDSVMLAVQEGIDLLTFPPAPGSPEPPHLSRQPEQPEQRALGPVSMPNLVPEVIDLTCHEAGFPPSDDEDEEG
Experimental: To investigate this relationship further, the anti-RIZ antiserum raised against the GST-RIZ (245-573) fusion protein containing the cr2, ce1 and part of the cr1 motifs, was tested for cross reactivity with E1A. For these experiments, E1A was labeled with ^35S-methionine during in vitro transcription/translation using methods described above.
To further verify binding between anti-RIZ and E1A, the cross reactive antibodies from the anti-RIZ antiserum were purified by affinity chromatography on a column containing E1A 12S protein.
E1A 12S, truncated at residue 223 (E1A223) was produced by generating a PCR fragment of E1A using an upstream SP6 primer (Stratagene) a downstream E1A primer 5′-[sequence] […] The resulting PCR fragment was cloned into pCRSK+, which was used to direct the synthesis of the mutant E1A 12S protein by SP6 in vitro transcription/translation. The full length E1A 12S (E1A243) was produced from vector pGEM1Ad5E1A12S by in vitro transcription/translation as described above for the other vectors.
The regions of RIZ and E1A 12S that contain the ce1 epitope show significant amino acid sequence homology (FIG. 2A). The sequence ^312EDLLEE (SEQ ID NO: 20) in RIZ and the sequence ^224EDLLNE (SEQ ID NO: 21) in E1A are likely sites for the ce1 epitope. To evaluate this possibility, an 11 amino acid peptide encompassing residues 310-320 in RIZ (ce1 peptide) [sequence] […]

p56EERb = target: T2, p56EERb (Homo sapiens, UniProt P06400); assay: cDNA expression library filter screening with p56EERb, binding-specificity control; conditions: p56EERb preincubated with 5 μM poly-L-lysine or 50 μM T- or K-peptide
T2 construct: p56 Rb: 56 kD fragment of Rb from a.a. position 379-928; made in house; host or cells: E. coli BL21(DE3)pLysS
T2 sequence (P06400 379-928): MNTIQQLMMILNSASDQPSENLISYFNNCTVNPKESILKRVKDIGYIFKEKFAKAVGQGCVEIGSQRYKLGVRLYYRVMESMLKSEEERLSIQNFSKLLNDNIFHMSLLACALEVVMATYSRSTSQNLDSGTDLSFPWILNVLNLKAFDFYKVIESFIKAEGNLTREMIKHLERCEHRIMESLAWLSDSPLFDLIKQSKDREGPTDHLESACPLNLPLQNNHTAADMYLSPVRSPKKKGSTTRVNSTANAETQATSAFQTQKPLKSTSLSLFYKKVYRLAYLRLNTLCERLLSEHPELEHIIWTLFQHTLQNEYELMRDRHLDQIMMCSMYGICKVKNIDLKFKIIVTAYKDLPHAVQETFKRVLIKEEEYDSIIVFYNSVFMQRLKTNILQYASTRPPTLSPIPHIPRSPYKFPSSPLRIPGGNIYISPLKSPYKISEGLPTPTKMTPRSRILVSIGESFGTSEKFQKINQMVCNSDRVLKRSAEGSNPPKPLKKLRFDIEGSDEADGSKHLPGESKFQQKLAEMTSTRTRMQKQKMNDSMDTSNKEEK
Experimental: A rat RIZ cDNA was obtained from a rat neonatal cardiac myocyte λgt11 cDNA expression library (Zhu et al., Mol. Cell Biol., 13:4432 (1993), which is incorporated herein by reference). The library was screened using a 56 kD fragment containing the pocket binding site of Rb and the EE epitope (p56EERb) according to previously described methods (Macgregor et al., Oncogene, 5:451-458 (1991), which is incorporated herein by reference).
For binding-specificity control, p56EERb was preincubated with 5 μM poly-L-lysine (Sigma) or 50 μM T- or K-peptide (Huang et al., supra, 1991) before applying onto filters. T peptide is an 18 residue synthetic peptide derived from residues 101-118 of SV40 large T antigen, while K peptide is the same as T peptide except for a lysine residue substituted for a glutamic acid residue at position 107 of SV40 large T antigen (Huang et al., supra, 1991).
The binding of p56EERb to a clone expressing a RIZ protein was detected using an anti-EE monoclonal antibody obtained as spent culture medium of the anti-EE hybridoma (Walter, supra, 1986) and an alkaline phosphatase conjugated goat anti-mouse IgG antibody specific for mouse immunoglobulin (Promega; Madison Wis.).

35S-RIZ (1-575)^307-Gly = target: T3, 35S-RIZ (1-575)^307-Gly (rat, UniProt Q63755 1-575, 35S label); assay: immunoprecipitation with anti-Rb antiserum, SDS-PAGE, autoradiography
T3 construct: In vitro transcribed/translated; also called glycine mutant; cr2 mutant
T3 sequence: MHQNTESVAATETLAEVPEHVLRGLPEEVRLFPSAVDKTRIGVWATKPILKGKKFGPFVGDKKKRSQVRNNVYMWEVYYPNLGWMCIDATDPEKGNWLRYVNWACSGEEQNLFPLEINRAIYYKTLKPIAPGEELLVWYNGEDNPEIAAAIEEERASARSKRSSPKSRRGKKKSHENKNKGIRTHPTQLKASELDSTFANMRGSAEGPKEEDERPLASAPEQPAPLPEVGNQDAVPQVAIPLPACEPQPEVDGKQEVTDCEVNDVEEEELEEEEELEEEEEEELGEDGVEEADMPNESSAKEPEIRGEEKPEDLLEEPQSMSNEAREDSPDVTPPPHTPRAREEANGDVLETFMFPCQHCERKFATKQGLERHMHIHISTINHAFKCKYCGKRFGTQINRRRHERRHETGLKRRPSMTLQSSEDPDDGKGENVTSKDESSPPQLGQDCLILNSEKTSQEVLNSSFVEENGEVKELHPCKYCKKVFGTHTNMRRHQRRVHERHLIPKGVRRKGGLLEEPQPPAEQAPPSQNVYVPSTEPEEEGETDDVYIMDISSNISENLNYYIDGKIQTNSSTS

[1] = target: 35S-labeled full length RIZ (rat, UniProt Q63755 1-1706, 35S label); assay: GST fusion protein with in vitro translated labeled protein
[2] = target: T4, hypophosphorylated Rb (pRb) from HT1080 cell extract (UniProt P06400 2-928, hypophosphorylated form); assay: glutathione-agarose pull-down from HT1080 cell extract with 4 ug GST-RIZ; anti-Rb immunoblot
T4 construct: Endogenous protein in a cell lysate; also called Rb from HT1080 cells; fastest migrating forms of Rb
T4 sequence (looked up): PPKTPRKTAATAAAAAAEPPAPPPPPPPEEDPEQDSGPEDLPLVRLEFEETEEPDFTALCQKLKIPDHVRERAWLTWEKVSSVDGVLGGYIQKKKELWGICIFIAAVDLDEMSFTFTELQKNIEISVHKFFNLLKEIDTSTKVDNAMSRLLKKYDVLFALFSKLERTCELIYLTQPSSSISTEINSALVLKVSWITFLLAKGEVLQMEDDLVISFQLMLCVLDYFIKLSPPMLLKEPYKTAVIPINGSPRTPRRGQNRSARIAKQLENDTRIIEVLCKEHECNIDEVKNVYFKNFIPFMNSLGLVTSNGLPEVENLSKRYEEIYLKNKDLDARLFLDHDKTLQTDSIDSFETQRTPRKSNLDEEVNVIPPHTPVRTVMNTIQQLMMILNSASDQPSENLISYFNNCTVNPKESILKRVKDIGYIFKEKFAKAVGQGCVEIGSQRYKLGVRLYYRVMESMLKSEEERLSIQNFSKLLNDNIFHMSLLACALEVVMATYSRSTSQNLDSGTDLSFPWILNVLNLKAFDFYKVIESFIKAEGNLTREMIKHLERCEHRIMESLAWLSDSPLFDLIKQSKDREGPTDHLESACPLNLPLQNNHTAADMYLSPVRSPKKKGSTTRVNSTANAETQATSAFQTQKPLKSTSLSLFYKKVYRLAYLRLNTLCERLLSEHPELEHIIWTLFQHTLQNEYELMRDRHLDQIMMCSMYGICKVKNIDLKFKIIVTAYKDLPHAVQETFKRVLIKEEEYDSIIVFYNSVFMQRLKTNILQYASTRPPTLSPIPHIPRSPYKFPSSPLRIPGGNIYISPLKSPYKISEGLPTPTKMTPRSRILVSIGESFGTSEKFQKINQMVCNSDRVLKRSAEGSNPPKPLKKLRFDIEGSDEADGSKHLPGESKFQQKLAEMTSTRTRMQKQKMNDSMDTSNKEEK
Experimental: The cells were grown in DMEM supplemented with 100 fetal calf serum. Cells were lysed in ELB buffer (50 mM HEPES, pH 7.5, 250 mM NaCl, 0.1% NP-40) supplemented with 5 mM EDTA, 50 mM NaF, 1 mM Na orthovanadate, 1 mM of DTT, aprotinin, leupeptin, and PMSF. The lysate was cleared of cell debris by centrifugation at 12,000 rpm for 10 min in a microfuge.

Molecule: KPEDLLEEPQS [ce1 peptide]
- inhibition of binding between anti-ce1 antibody and 35S-RIZ318 (RIZ): inhibited binding
- inhibition of binding between anti-ce1 antibody and 35S-E1A 12S (E1A243) (E1A 12S): inhibited binding

Molecule: poly-L-lysine
- inhibition of binding of p56EERb to RIZ-expressing clones (p56EERb): maintained their reactivity

B1: 56 kD fragment of Rb produced by bacterial expression from p56Rb plasmid (other, UniProt P06400 379-928, looked up)
chain: MNTIQQLMMILNSASDQPSENLISYFNNCTVNPKESILKRVKDIGYIFKEKFAKAVGQGCVEIGSQRYKLGVRLYYRVMESMLKSEEERLSIQNFSKLLNDNIFHMSLLACALEVVMATYSRSTSQNLDSGTDLSFPWILNVLNLKAFDFYKVIESFIKAEGNLTREMIKHLERCEHRIMESLAWLSDSPLFDLIKQSKDREGPTDHLESACPLNLPLQNNHTAADMYLSPVRSPKKKGSTTRVNSTANAETQATSAFQTQKPLKSTSLSLFYKKVYRLAYLRLNTLCERLLSEHPELEHIIWTLFQHTLQNEYELMRDRHLDQIMMCSMYGICKVKNIDLKFKIIVTAYKDLPHAVQETFKRVLIKEEEYDSIIVFYNSVFMQRLKTNILQYASTRPPTLSPIPHIPRSPYKFPSSPLRIPGGNIYISPLKSPYKISEGLPTPTKMTPRSRILVSIGESFGTSEKFQKINQMVCNSDRVLKRSAEGSNPPKPLKKLRFDIEGSDEADGSKHLPGESKFQQKLAEMTSTRTRMQKQKMNDSMDTSNKEEK
notes: range 379-928; Expressed in E. coli; also called 56 kD Rb
- binding result (35S-RIZ (1-575)^307-Gly): no binding (tested: 33 nM Rb)

B2: purified rat RIZ (a.a. position 215-462) fused C-terminal to glutathionine S-transferase (GST) (other)
chain: PLASAPEQPAPLPEVGNQDAVPQVAIPLPACEPQPEVDGKQEVTDCEVNDVEEEELEEEEELEEEEEEELGEDGVEEADMPNESSAKEPEIRCEEKPEDLLEEPQSMSNEAREDSPDVTPPPHTPRAREEANGDVLETFMFPCQHCERKFATKQGLERHMHIHISTINHAFKCKYCGKRFGTQINRRRHERRHETGLKRRPSMTLQSSEDPDDGKGENVTSKDESSPPQLGQDCLILNSEKTSQEVLN
notes: not shown: glutathione S-transferase
- binding result [1]: no binding
- binding result [2]: binds
